Target: IL-15 (Homo sapiens, UniProt P40933)
Sequence (P40933 49-162): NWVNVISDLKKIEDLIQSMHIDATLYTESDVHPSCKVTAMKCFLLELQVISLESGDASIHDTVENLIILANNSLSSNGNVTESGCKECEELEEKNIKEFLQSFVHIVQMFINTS

Kd: 240 pM
B1: rILR-Fc (IL-15Rα-Sushi-Fc) Sushi (protein)
chain: TRGITCPPPMSVEHADIWVKSYSLYSRERYICNSGFKRKAGTSSLTECVLNKATNVAHWTTPSLKCIRDPA
modifications: Fc fusion
